Consider 4 molecules from patent US20130337050A1 (IMMUNOFUTURE, published 2013).

The chains are these.
B1: GST-mTfR1 (GST-fused recombinant protein of the partial sequence 321-329 of mouse transferrin receptor 1) (other, not shown: a dimerising Fc or GST)
chain: TQFPPSQSS

Common to all, as to assay: amylose resin pull-down, western blotting with anti-GST antibody
On the technique in general: A western blot detects proteins with antibodies after separation by electrophoresis.

The target of test [1] is B1.
Test [2] addresses MBP-VP1 GH strand I (fused recombinant protein of VP1 GH strand I and MBP) (poliovirus).
For test [3], the target named is MBP-VP1BC loop (fused recombinant protein of VP1BC loop and MBP) (poliovirus).

For the molecule STKDLTTY (other) [MBP-VP1C terminal region (fused recombinant protein of VP1C terminal region and MBP)], the binding result in test [1] was “binds”.

For the molecule SKVPLKDQSAALGDSLYGAASLNDFGILAVRVV (other) [MBP-VP1 GH strand II (fused recombinant protein of VP1 GH strand II and MBP)], the binding result in test [1] is recorded as “binds”. For B1, the binding result in test [2] and in test [3] was “binds” in each case. Turning to ALGDSLYGAASLN (other) [MBP-VP1 GH loop (fused recombinant protein of VP1 GH loop and MBP)], the binding result in test [1] is recorded as “binds”.
